Data as given in US20190309059A1 (SHANGHAI PHARMAEXPLORER, published 2019).

Key:
[1] = biological target: cynomolgus IL-13 (purchased from sino biological) (cynomolgus) (UniProt Q0PW92); experiment: ELISA, cynomolgus IL-13; antibody at 2.67 nM
[2] = biological target: his-labeled human IL-13 (immunogen A) (human) (UniProt P35225); experiment: FACS blocking, biotin-IL-13 on IL-13Ra2 HEK293 cells; antibody at 166.67 nM
[3] = biological target: his-labeled human IL-13 (immunogen A) (human) (UniProt P35225); experiment: FACS blocking, biotin-IL-13 on IL-13Ra1/IL-4Ra HEK293 cells; antibody at 6.67 nM
[4] = biological target: his-labeled human IL-13 (immunogen A) (human) (UniProt P35225); experiment: FACS blocking, biotin-IL-13 on IL-13Ra1/IL-4Ra HEK293 cells; antibody at 0.01 nM
[5] = biological target: cynomolgus IL-13 (purchased from sino biological) (cynomolgus) (UniProt Q0PW92); experiment: ELISA, cynomolgus IL-13; antibody at 0.021 nM
[6] = biological target: his-labeled human IL-13 (immunogen A) (human) (UniProt P35225); experiment: ELISA, biotin-immunogen A; antibody at 0.53 nM
[7] = biological target: his-labeled human IL-13 (immunogen A) (human) (UniProt P35225); experiment: FACS blocking, biotin-IL-13 on IL-13Ra2 HEK293 cells; antibody at 1.33 nM
[8] = biological target: his-labeled human IL-13 (immunogen A) (human) (UniProt P35225); experiment: ELISA, biotin-immunogen A; antibody at 2.67 nM
[9] = biological target: his-labeled human IL-13 (immunogen A) (human) (UniProt P35225); experiment: FACS blocking, biotin-IL-13 on IL-13Ra2 HEK293 cells; antibody at 33.33 nM
[10] = biological target: his-labeled human IL-13 (immunogen A) (human) (UniProt P35225); experiment: FACS blocking, biotin-IL-13 on IL-13Ra1/IL-4Ra HEK293 cells; antibody at 0.002 nM
[11] = biological target: his-labeled human IL-13 (immunogen A) (human) (UniProt P35225); experiment: FACS blocking, biotin-IL-13 on IL-13Ra2 HEK293 cells; antibody at 0.002 nM
[12] = biological target: his-labeled human IL-13 (immunogen A) (human) (UniProt P35225); experiment: FACS blocking, biotin-IL-13 on IL-13Ra1/IL-4Ra HEK293 cells; antibody at 0.05 nM
[13] = biological target: his-labeled human IL-13 (immunogen A) (human) (UniProt P35225); experiment: cell-based or functional assay
[14] = biological target: his-labeled human IL-13 (immunogen A) (human) (UniProt P35225); experiment: FACS blocking, biotin-IL-13 on IL-13Ra2 HEK293 cells; antibody at 0.01 nM
[15] = biological target: his-labeled human IL-13 (immunogen A) (human) (UniProt P35225); experiment: FACS blocking, biotin-IL-13 on IL-13Ra1/IL-4Ra HEK293 cells; antibody at 166.67 nM
[16] = biological target: cynomolgus IL-13 (purchased from sino biological) (cynomolgus) (UniProt Q0PW92); experiment: ELISA, cynomolgus IL-13; antibody at 13.33 nM
[17] = biological target: his-labeled human IL-13 (immunogen A) (human) (UniProt P35225); experiment: FACS blocking, biotin-IL-13 on IL-13Ra2 HEK293 cells; antibody at 0.05 nM
[18] = biological target: his-labeled human IL-13 (immunogen A) (human) (UniProt P35225); experiment: FACS blocking, biotin-IL-13 on IL-13Ra2 HEK293 cells; antibody at 6.67 nM
[19] = biological target: his-labeled human IL-13 (immunogen A) (human) (UniProt P35225); experiment: ELISA, biotin-immunogen A; antibody at 0.000 nM
[20] = biological target: his-labeled human IL-13 (immunogen A) (human) (UniProt P35225); experiment: FACS blocking, biotin-IL-13 on IL-13Ra1/IL-4Ra HEK293 cells; antibody at 33.33 nM
[21] = biological target: his-labeled human IL-13 (immunogen A) (human) (UniProt P35225); experiment: FACS blocking, biotin-IL-13 on IL-13Ra1/IL-4Ra HEK293 cells; antibody at 1.33 nM
[22] = biological target: cynomolgus IL-13 (purchased from sino biological) (cynomolgus) (UniProt Q0PW92); experiment: ELISA, cynomolgus IL-13; antibody at 0.53 nM
[23] = biological target: his-labeled human IL-13 (immunogen A) (human) (UniProt P35225); experiment: FACS blocking, biotin-IL-13 on IL-13Ra1/IL-4Ra HEK293 cells; antibody at 0.27 nM
[24] = biological target: his-labeled human IL-13 (immunogen A) (human) (UniProt P35225); experiment: FACS blocking, biotin-IL-13 on IL-13Ra2 HEK293 cells; antibody at 0.27 nM
[25] = biological target: cynomolgus IL-13 (purchased from sino biological) (cynomolgus) (UniProt Q0PW92); experiment: ELISA, cynomolgus IL-13; antibody at 0.004 nM

Sequence of cynomolgus IL-13 (purchased from sino biological) (cynomolgus) (Q0PW92 entry or part of it): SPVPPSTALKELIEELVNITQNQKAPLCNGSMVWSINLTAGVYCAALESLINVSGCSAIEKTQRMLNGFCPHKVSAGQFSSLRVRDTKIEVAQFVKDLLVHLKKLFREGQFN

Binder | OD450 nm [1] | mean fluorescence intensity [2] | mean fluorescence intensity [3] | mean fluorescence intensity [4] | OD450 nm [5] | OD450 nm [6] | mean fluorescence intensity [7] | OD450 nm [8] | mean fluorescence intensity [9] | mean fluorescence intensity [10] | mean fluorescence intensity [11] | mean fluorescence intensity [12] | TARC (pg/mL), A549 cells + IL-13 5 ng/mL + TNFα; antibody at 0.001 nM [13] | TARC (pg/mL), A549 cells + IL-13 5 ng/mL + TNFα; antibody at 0.004 nM [13] | TARC (pg/mL), A549 cells + IL-13 5 ng/mL + TNFα; antibody at 0.021 nM [13] | TARC (pg/mL), A549 cells + IL-13 5 ng/mL + TNFα; antibody at 0.11 nM [13] | TARC (pg/mL), A549 cells + IL-13 5 ng/mL + TNFα; antibody at 0.5 nM [13] | TARC (pg/mL), A549 cells + IL-13 5 ng/mL + TNFα; antibody at 2.7 nM [13] | TARC (pg/mL), A549 cells + IL-13 5 ng/mL + TNFα; antibody at 13.3 nM [13] | TARC (pg/mL), A549 cells + IL-13 5 ng/mL + TNFα; antibody at 66.7 nM [13] | also measured
28A2E11 (lead antibody, mouse hybridoma) (antibody, V domains shown, Mouse monoclonal antibody purified from hybridoma supernatant on Protein G) VH: EVQLQQSGAELVKPGASVKLSCTASGFNIKDYYMHWVKQRTEQGLEWIGRIDPEDGETKYAPKFHDKATLTADTSSNTAYLQFSSLASEDTAVYYCTRYDYYGPFAYWGQGTLVTVSA VL: QAVVTQESVLTTSPGETVTLTCRSSTGAVTTSNYANWVQEKPDHLFTGLIGGTNNRAPGVPARFSGSLIGDKAALTITGAQTEDEAIYFCALWYINHFIFGSGTKVTVL | 1.35 | 53.3 | 28.8 | 76.2 | 0.14 | 1.32 | 60.1 | 1.69 | 56.6 | 74.7 | 76.5 | 71.5 | 1850 pg/mL | 1700 pg/mL | 1590 pg/mL | 1360 pg/mL | 601 pg/mL | 118 pg/mL | 51 pg/mL | 56 pg/mL | mean fluorescence intensity [14]: 79.7; mean fluorescence intensity [15]: 24.6; OD450 nm [16]: 1.78; mean fluorescence intensity [17]: 76.9; mean fluorescence intensity [18]: 55.9; OD450 nm [19]: 0.05; mean fluorescence intensity [20]: 27.2; mean fluorescence intensity [21]: 39.6; OD450 nm [22]: 0.83; mean fluorescence intensity [23]: 64.2; mean fluorescence intensity [24]: 72.1; OD450 nm [25]: 0.08
29D9H8 (lead antibody, mouse hybridoma) (antibody, V domains shown, Mouse monoclonal antibody purified from hybridoma supernatant on Protein G) VH: QVQLQQSGAELVRPGASVTLSCKASGYTFTDYEMHWVKQTPVHGLEWIGGIDPETGGTASNQKFKGKAILTADKSSSTAYMELRSLTSEDSAVYYCTSGDYFGGGPFAYWGQGTLVTVSA VL: DIKMTQSPSSMYASLGERVTITCKASQDINSYLSWFQQKPGKSPKTLIYRANRLVDGVPSRFSGSGSGQDYSLTISSLDYEDMGIYYCLQYDEFPYTFGGGTKLEIK | 2.36 | 20.5 | 16.6 | 74.2 | 0.56 | 1.4 | 32.3 | 1.61 | 21.5 | 75.3 | 76.3 | 68.5 | 1910 pg/mL | 1720 pg/mL | 1600 pg/mL | 1300 pg/mL | 653 pg/mL | 146 pg/mL | 53 pg/mL | 42 pg/mL | mean fluorescence intensity [14]: 74.6; mean fluorescence intensity [15]: 14.8; OD450 nm [16]: 2.46; mean fluorescence intensity [17]: 67.6; mean fluorescence intensity [18]: 23.6; OD450 nm [19]: 0.06; mean fluorescence intensity [20]: 15.9; mean fluorescence intensity [21]: 24; OD450 nm [22]: 2.05; mean fluorescence intensity [23]: 45.3; mean fluorescence intensity [24]: 45.4; OD450 nm [25]: 0.19
